Test results reported in EP0574621A1.
Like-named read-outs stand apart in the source and are kept apart here.

Tests used:
von Willebrand factor [1] = biological target: von Willebrand factor (UniProt P04275); assay: cell-based or functional assay
von Willebrand factor [2] = biological target: von Willebrand factor (UniProt P04275)
von Willebrand factor [3] = biological target: von Willebrand factor (UniProt P04275); assay: competitive inhibition of 125I-two-chain botrocetin binding to vWF in solution by unlabeled two-chain botrocetin; vWF captured on 2-2-9 IgG coated wells
von Willebrand factor [4] = biological target: von Willebrand factor (UniProt P04275); assay: ratio of IC50 values from the competitive radiolabelled botrocetin binding assay

In the case of one-chain botrocetin, the Half maximal binding capacity (BM50) (von Willebrand factor [1]) is reported as 5.5 µg/mL, the concentration giving maximal vWF binding to glycoprotein Ib (von Willebrand factor [1]) is reported as 17 µg/mL and the minimum concentration necessary to induce vWF binding to glycoprotein Ib (von Willebrand factor [1]) is reported as 1 µg/mL. It also gave an IC50 (von Willebrand factor [2]) of 55 µg/mL.

For two-chain botrocetin, the Half maximal binding capacity (BM50) (von Willebrand factor [1]) was 0.16 µg/mL, the fold greater activity (BM50) than one-chain botrocetin (von Willebrand factor [1]) was 34 fold and the IC50 (von Willebrand factor [3]) was 1.7 µg/mL. It also gave a fold higher affinity than one-chain botrocetin (von Willebrand factor [4]) of 32 fold.
